Measurements from paper PMC4783357.

Tested on: T1, His-OsWOX3A (Oryza sativa), ORF:198cabac
T1 sequence: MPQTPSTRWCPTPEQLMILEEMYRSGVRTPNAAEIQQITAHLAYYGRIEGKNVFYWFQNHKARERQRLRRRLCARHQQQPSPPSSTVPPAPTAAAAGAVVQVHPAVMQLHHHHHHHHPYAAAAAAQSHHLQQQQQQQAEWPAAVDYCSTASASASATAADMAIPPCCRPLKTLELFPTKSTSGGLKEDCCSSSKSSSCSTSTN
Assay: EMSA
Conditions: 10 mM Tris pH 7.5, 50 mM KCl, 1 mM DTT (from 10x buffer) plus about 50 mM KCl, 5 mM MgCl2, 10 mM EDTA, 2.5% glycerol, 0.05% NP-40, 50 ng/ul poly(dG-dC); room …

## TACAAAACTCACTACTAGTAATTAAGTGTTGAGGGTTCGAGAACAAATTAATTAATCGCCAAATAATGCATCACAAACATCATCAACCTAGTTATCGGTT (double strand) [KAO-W1]
  binding: binds
